Experimental data taken from paper PMC5580921, “Homeodomain-like DNA binding proteins control the haploid-to-diploid transition in Dictyostelium”.
Residue numbers refer to the chain shown, from its start.

What was measured:
MatB S71A [1] = target: T1, MatB S71A (Dictyostelium discoideum, UniProt D3UFE5 1-107, S71A); assay: EMSA; similar to wild type; EMSA: 10 mM Tris-HCl pH 7.4, 1 mM EDTA, 20 mM NaCl, 30 min room temperature, 6% polyacrylamide gel in 1x tris-borate. NMR: 25 mM phosphate pH 6, 50 mM NaCl, 50; settings: protein: recombinant; tags: His6-lipoyl domain tag removed by TEV (15N-labeled for NMR); label: none (SYBR Gold stain); blunt
T1 sequence: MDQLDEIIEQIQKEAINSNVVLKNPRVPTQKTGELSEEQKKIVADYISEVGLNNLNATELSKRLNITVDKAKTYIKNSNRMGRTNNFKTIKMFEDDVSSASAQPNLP

MatA [2] = target: T2, MatA (Dictyostelium discoideum, UniProt Q54HW9 1-107); assay: EMSA; smear; nonspecific, low affinity; EMSA: 10 mM Tris-HCl pH 7.4, 1 mM EDTA, 20 mM NaCl, 30 min room temperature, 6% polyacrylamide gel in 1x tris-borate. NMR: 25 mM phosphate pH 6, 50 mM NaCl, 50; settings: protein: recombinant; tags: His6-lipoyl domain tag removed by TEV (15N-labeled for NMR); label: none (SYBR Gold stain); blunt
T2 sequence: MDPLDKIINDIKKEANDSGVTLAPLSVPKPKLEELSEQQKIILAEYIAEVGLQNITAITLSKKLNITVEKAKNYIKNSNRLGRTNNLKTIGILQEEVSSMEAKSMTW

MatB = target: T3, MatB (Dictyostelium discoideum, UniProt D3UFE5 1-107); assay: EMSA; nonspecific; EMSA: 10 mM Tris-HCl pH 7.4, 1 mM EDTA, 20 mM NaCl, 30 min room temperature, 6% polyacrylamide gel in 1x tris-borate. NMR: 25 mM phosphate pH 6, 50 mM NaCl, 50; settings: protein: recombinant; tags: His6-lipoyl domain tag removed by TEV; label: none (SYBR Gold stain); blunt
T3 sequence: T1 sequence with A71S

MatA K72A/K76A = target: T4, MatA K72A/K76A (Dictyostelium discoideum, UniProt D3UFF3 1-107, K72A;K76A); assay: EMSA; EMSA: 10 mM Tris-HCl pH 7.4, 1 mM EDTA, 20 mM NaCl, 30 min room temperature, 6% polyacrylamide gel in 1x tris-borate. NMR: 25 mM phosphate pH 6, 50 mM NaCl, 50; settings: protein: recombinant; tags: His6-lipoyl domain tag removed by TEV; label: none (SYBR Gold stain); blunt
T4 sequence: T2 sequence with K72A, K76A

MatA [3] = target: T2, MatA; assay: NMR; 58-bp titration 40-120 uM DNA, 20 uM MatA; fast exchange, very weak, unsaturated; EMSA: 10 mM Tris-HCl pH 7.4, 1 mM EDTA, 20 mM NaCl, 30 min room temperature, 6% polyacrylamide gel in 1x tris-borate. NMR: 25 mM phosphate pH 6, 50 mM NaCl, 50; settings: protein: recombinant; tags: His6-lipoyl domain tag removed by TEV (15N-labeled for NMR); label: none; blunt
MatB S71A [4] = target: T1, MatB S71A; assay: NMR; 80 uM DNA, 20 uM protein, 1 C; core signals lost by intermediate exchange broadening; EMSA: 10 mM Tris-HCl pH 7.4, 1 mM EDTA, 20 mM NaCl, 30 min room temperature, 6% polyacrylamide gel in 1x tris-borate. NMR: 25 mM phosphate pH 6, 50 mM NaCl, 50; settings: protein: recombinant; tags: His6-lipoyl domain tag removed by TEV (15N-labeled for NMR); label: none; blunt
MatA [5] = target: T2, MatA; assay: NMR; 80 uM DNA, 20 uM MatA; CSPs at L32, L35, E69, I75, K76, N77; EMSA: 10 mM Tris-HCl pH 7.4, 1 mM EDTA, 20 mM NaCl, 30 min room temperature, 6% polyacrylamide gel in 1x tris-borate. NMR: 25 mM phosphate pH 6, 50 mM NaCl, 50; settings: protein: recombinant; tags: His6-lipoyl domain tag removed by TEV (15N-labeled for NMR); label: none; blunt

B1: EMSA dsDNA with MATalpha2 operator (dsDNA)
DNA 1: CCGAAACGTTTGGTGGCGCATGTAATTCATTTACACGCGCGAGGGCGTGCAAGATTC
DNA 2: GAATCTTGCACGCCCTCGCGCGTGTAAATGAATTACATGCGCCACCAAACGTTTCGG
binding result (MatB S71A [1]): binds | binding result (MatA [2]): binds | binding result (MatB): binds | binding result (MatA K72A/K76A): no binding

B2: 58-bp DNA (dsDNA)
DNA 1: GAATCTTGCACGCCCTCGCTCAAGCCTTCGTCACTGGTCCCGCCACCAAACGTTTCGG
DNA 2: CCGAAACGTTTGGTGGCGGGACCAGTGACGAAGGCTTGAGCGAGGGCGTGCAAGATTC
binding result (MatA [3]): binds

B3: 29-bp DNA (dsDNA)
DNA 1: CCGAAACGTTTGGTGGCGGGACCAGTGAC
DNA 2: GTCACTGGTCCCGCCACCAAACGTTTCGG
binding result (MatB S71A [4]): binds | binding result (MatA [5]): binds
